Data taken from patent US12545899B2, “Luciferase enzymes for use with thermostable luciferins in bioluminescent assays” (Promega Corporation, priority 2018, dated 2026).
Where a chain is given by its changes, count along the chain named. In names and notes the source's numbering stands. One block for each molecule: values may come before it.

What was measured:
Assay type in all cases: biochemical
[1] = Purified enzyme activity of ATG-2890 with CS0333 (FIGS. 9C-9D)
Description: (§1) FIG. 9A includes a representative graph assessing the activities of luciferase enzyme variants ATG-2877, ATG-2624, and ATG-2890 in the presence of 5,5-disubstituted luciferin analog substrate. Luciferin analog compounds were diluted from 50 mM to 20 mM in reaction buffer (either Bright-Glo™ or Detection Reagent buffer). […] Reagent compositions included 50 μl Reaction Buffer+ATP, which was combined with 50 μl diluted enzyme. Plates were incubated at room temp for 30 minutes to minimize background, and 5 μl of luciferin analog substrate was added to a final concentration of 1 mM. Plates were read before and after compound addition at 3 mins and 20 mins.

[2] = Purified enzyme activity of ATG-2890 with CS0280 (FIGS. 9C-9D)
Description: as §1

[3] = Inhibition of luciferase enzyme variants by dehydro-F-luciferin; details: for resistance to inhibition by dehydro F-luciferin: 1 μM F-luciferin, 1 mM ATP (FIG. 26)
Description: Reagent compositions include 0.022 μM-366.97 μM Dehydro F-luciferin titration, 1 mM ATP, 1 μM F-luciferin, and 0.005 mg/ml enzyme. […] Both amino acid substitutions L305F and S306P conferred improved resistance to the inhibitor individually and in combination.

[4] = Effect of V300G, L305F, S306P on activity with CS0333 (FIG. 13); details: 1 mM ATP; 100 nM to 1 mM substrate; Bright-Glo buffer
Description: FIG. 13 includes a representative graph of the effects of amino acid substitutions V300G, L305F, and S306P on enzyme activity with the CS0333 analog. Reagent compositions included […]+1 mM ATP+100 nM to 1 mM substrate in Bright-Glo™ buffer.

[5] = Luminescence of ATG-3707 variants (second round epPCR) with CS0333
Description: Reagent compositions included CS0333 diluted from 20 mM to 2 mM in reaction buffer with 2 mM ATP. […] Reactions were incubated at 25° C. for 3 min, and luminescence was read and then normalized to ATG-3707 activity tested in parallel.

[6] = Kinetic analysis of ATG-3707 variants with CS0333
Description: Additionally, Table 5 (below) includes kinetic analysis of the ATG-3707 variants identified above. Reagent compositions included CS0333 serially diluted 10-fold from 1 mM to 10 fM in reaction buffer with 2 mM ATP. […] Reactions were incubated at 25° C. for 3 min, and luminescence was read and then normalized to ATG-3707 activity tested in parallel. […] Since C2157D2 was selected for improved brightness in CellTiterGlo® buffer over ATG-3707, it still had beneficial properties.

[7] = Kinetic analysis of ATG-3707, ATG-4117 with CS0280
Description: (§2) Kinetic tests of these luciferase enzyme variants were also conducted. […] Reagent compositions included 0.005 mg/ml luciferase enzyme variant+1 mM ATP, and 0.1 fM to 1 mM substrate in Bright-Glo™ (BG) or Detection Reagent (DR) buffers. The composition was incubated for 3 mins and read on GloMax® Multi+platform.
(§3) Table 8 below includes representative results of kinetic analysis of the thermostable luciferase variants of Ppe (SEQ ID NO: 1), ATG-3707, and ATG-4117. The Ppe variant (SEQ ID NO: 1) was tested with D/L-luciferin, and ATG-3707, and ATG-4117 were tested with CS0280 and CS0333.

[8] = Kinetic analysis of Ppe variant, ATG-3707, ATG-4117 with D/L-luciferin
Description: as §2, §3

[9] = Vmax and Km of ATG-3707 with CS0333
[10] = Activity and kinetics of ATG-3707 with CS0333 (FIGS. 19B-19D)
Description: Reagent compositions included 0.005 mg/ml enzyme in 1×TBS+0.5% Prionex, 1 mM substrate in buffer, and 1 mM ATP.

[11] = Vmax and Km of Ppe variant and ATG-3707 with D/L-luciferin
[12] = Kinetic analysis of ATG-3707, ATG-4117 with CS0333
Description: as §2, §3

increase in activity with CS0333 compared to Ppe variant (SEQ ID NO: 1) ([1]; Bright-Glo Buffer): 1,470 fold
increase in activity with CS0333 compared to Ppe variant (SEQ ID NO: 1) ([1]; Detection Buffer): 3,050 fold
increase in activity with CS0280 compared to Ppe variant (SEQ ID NO: 1) ([2]; Bright-Glo Buffer): 120 fold
increase in activity with CS0280 compared to Ppe variant (SEQ ID NO: 1) ([2]; Detection Buffer): 6 fold
B1: ATG-2890: SEQ ID NO: 13; I240L+H244W+Y254S+T344A+I396K (protein)
chain: MADKNILYGPEPFYPLEDGTAGEQMFDALSRYAAIPGCIALTNAHTKENVLYEEFLKLSCRLAESFKKYGLKQNDTIAVCSENSLQFFLPVIASLYLGIIVAPVNDKYIERELIHSLGIVKPRIVFCSKNTFQKVLNVKSKLKSIETIIILDLNEDLGGYQCLNNFISQNSDSNLDVKKFKPYSFNRDDQVASIMFSSGTTGLPKGVMLTHKNIVARFSIAKDPTFGNAINPTSAILTVLPFHWGFGMMTTLGSFTCGFRVVLMHTFEEKLFLQSLQDYKVESTLLVPTLMAFLAKSALVEKYDLSHLKEIASGGAPLSKEIGEMVKKRFKLNFVRQGYGLTEATSAVLITPKGDAKPGSTGKIVPLHAVKVVDPTTGKILGPNEPGELYFKGPMKMKGYYNNEEATKAIIDNDGWLRSGDIAYYDNDGHFYIVDRLKSLIKYKGYQVAPAEIEGILLQHPYIVDAGVTGIPDEAAGELPAAGVVVQTGKYLNEQIVQDYVASQVSTAKWLRGGVKFLDEIPKGSTGKIDRKVLRQMLEKHTNGHHHHHHHH

B2: ATG-3551: SEQ ID NO: 16; H244W+T344A+I396K+V300G+S306P (protein)
chain: B1 chain with L240I, S254Y, V300G, S306P
resistance to inhibition by dehydro F-luciferin [3]: conferred resistance to inhibition by dehydro F-luciferin
activity with CS0333 relative to Ppe variant (SEQ ID NO: 1) [4]: improved activity

B3: ATG3707: SEQ ID NO: 2; H244W+T344A+I396K+S193A+N228D+L305F+S306P+I109V (protein)
chain: B1 chain with I109V, S193A, N228D, L240I, S254Y, L305F, S306P
Luminescence (RLU) BrightGlo ([5]; BrightGlo buffer, 25° C., 3 min): 3887670 RLU
Normalized Luminescence BrightGlo ([5]; BrightGlo buffer, normalized to ATG-3707): 1.00
Luminescence (RLU) CellTiterGlo ([5]; CellTiterGlo buffer, 25° C., 3 min): 644571 RLU
Normalized Luminescence CellTiterGlo ([5]; CellTiterGlo buffer, normalized to ATG-3707): 1.00
Luminescence (RLU) Detection Reagent ([5]; Detection Reagent buffer, 25° C., 3 min): 5157310 RLU
Normalized Luminescence Detection Reagent ([5]; Detection Reagent buffer, normalized to ATG-3707): 1.00
Km ([6]; BrightGlo): 6.25 µM
Vmax (RLU) ([6]; BrightGlo): 4,240,329 RLU
Km ([6]; Detection Reagent): 113 µM
Vmax (RLU) ([6]; Detection Reagent): 3,695,670 RLU
Km ([7]; BrightGlo): 4.53 µM
Vmax (RLU) ([7]; BrightGlo): 5,791,823 RLU
Km ([7]; Detection Reagent): 93.5 µM
Vmax (RLU) ([7]; Detection Reagent): 4,706,312 RLU
Km ([8]; BrightGlo): 0.0272 µM
Vmax (RLU) ([8]; BrightGlo): 2,596,835 RLU
Km ([8]; Detection Reagent): 1.18 µM
Vmax (RLU) ([8]; Detection Reagent): 6,820,106 RLU
Km ([9]; BrightGlo Buffer): 0.539 µM
Vmax (RLU) ([9]; BrightGlo Buffer): 3,724,104 RLU
Km ([9]; Detection Reagent Buffer): 4.82 µM
Vmax (RLU) ([9]; Detection Reagent Buffer): 5,458,906 RLU
activity with CS0333 comparable to that of Ppe variant with luciferin ([10]; Bright-Glo and Detection Reagent buffers): ≤ 10 ×
loss of performance with D/L-luciferin as compared to CS0333 ([10]; dimmer): about 1 log
Km ([11]; BrightGlo Buffer): 0.03 µM
Vmax (RLU) ([11]; BrightGlo Buffer): 2,033,235 RLU
Km ([11]; CellTiterGlo buffer): 91.7 µM
Vmax (RLU) ([11]; CellTiterGlo buffer): 4,840,502 RLU
Km ([11]; Detection Reagent Buffer): 19.4 µM
Vmax (RLU) ([11]; Detection Reagent Buffer): 4,499,483 RLU
Km ([12]; BrightGlo): 3.61 µM
Vmax (RLU) ([12]; BrightGlo): 828,567 RLU
Km ([12]; Detection Reagent): 148 µM
Vmax (RLU) ([12]; Detection Reagent): 42,242 RLU

B4: ATG-2625: SEQ ID NO: 4; N74N+H244R+V300G+I396K (protein)
chain: B1 chain with L240I, W244R, S254Y, V300G, A344T
inhibition by dehydro-F-luciferin relative to Ppe variant (SEQ ID NO: 1) ([3]; Detection reagent buffer or Bright-Glo buffer (FIGS. 20, 21)): inhibited by dehydro-F-luciferin, but less so

B5: ATG-3550: SEQ ID NO: 15; H244W+T344A+I396K+V300G+L305F (protein)
chain: B1 chain with L240I, S254Y, V300G, L305F
resistance to inhibition by dehydro F-luciferin [3]: conferred resistance to inhibition by dehydro F-luciferin
activity with CS0333 relative to Ppe variant (SEQ ID NO: 1) [4]: highest activity

B6: ATG-3552: SEQ ID NO: 17; H244W+T344A+I396K+V300G+L305P+S306P (protein)
chain: B1 chain with L240I, S254Y, V300G, L305F, S306P
resistance to inhibition by dehydro F-luciferin [3]: conferred resistance to inhibition by dehydro F-luciferin
activity with CS0333 relative to Ppe variant (SEQ ID NO: 1) [4]: improved activity

B7: ATG-3553: SEQ ID NO: 18; H244W+T344A+I396K+L305P+S306P (protein)
chain: B1 chain with L240I, S254Y, L305F, S306P
resistance to inhibition by dehydro F-luciferin [3]: conferred resistance to inhibition by dehydro F-luciferin
activity with CS0333 relative to Ppe variant (SEQ ID NO: 1) [4]: improved activity
